Measurements as given in paper PMC3169408, “Structure of triosephosphate isomerase from Cryptosporidium parvum” (Acta Crystallographica Section F: Structural Biology and …, 2011).

Target: the molecule itself
Experiment: crystal structure; crystals from 100 mM Bis-Tris propane pH 7.5, 200 mM sodium sulfate, 20% PEG 3350; space group P2(1); 1.55 Å; two molecules per asymmetric unit; interface analysed with PISA

B1: triosephosphate isomerase from Cryptosporidium parvum Iowa II (enzyme, UniProt Q5CSE7 1-250, looked up)
chain: MSRKYFVGGNFKCNGTKESLKTLIDSFKQVESSNSEVYVFPTSLHISLVKEFFGNDHPGVFKIGSQNISCTGNGAFTGEVSCEMLKDMDVDCSLVGHSERRQYYSETDQIVNNKVKKGLENGLKIVLCIGESLSERETGKTNDVIQKQLTEALKDVSDLSNLVIAYEPIWAIGTGVVATPGQAQEAHAFIREYVTRMYNPQVSSNLRIIYGGSVTPDNCNELIKCADIDGFLVGGASLKPTFAKIIESAQ
notes: triosephosphate isomerase, Cryptosporidium parvum Iowa II, UniProt Q5CSE7, residues 1-250 (Met1-Gln250), full length; The final model extends from Ser2 to Gln250 in both chains; also called TIM; CrpaA.01119.a.A1; source: E. coli Rosetta Oxford strain [BL21*(DE3)-R3-pRARE2], purified (IMAC, tag cleavage with 3C protease, SEC)
stoichiometry N: 2
